According to publication PMC9620489, “Insights into the structure and function of the histidine kinase ComP from Bacillus amyloliquefaciens based on molecular modeling” (Bioscience Reports, 2022):

Target: T1, ComPS (residues 563-763 of the histidine kinase ComP from Bacillus amyloliquefaciens Q-426) (Bacillus amyloliquefaciens Q-426)
T1 construct: No removal of the 6xHis tag is described; The forward primer F-BaComPS has an NcoI site followed by AT, which may add Met-Asp before R563; also called BaComPS; truncated ComPS protein; source: E. coli BL21 (RIL), pPROEXHTa vector, purified (Ni-NTA)
Assay: MST; microscale thermophoresis of ComPS with ComA; labelled partner, buffer and temperature not told in the text shown (curve in Supplementary Figure S8)
Conditions: both partners purified

B1: response regulator ComA (natural protein)
chain: MKKILVIDDHPAVMEGTKTILETDTNLSVDCLSPDASEQFVLRHDFSAYDLILMDLNLGDDISGIELSKKILKENPLCKIIVYTGYEVEDYFEESIRAGLHGAISKTESKEKIMQYIYHVLNGQILVDFSYFKQLMTQQKTKTSSSPQSEQDRLTPRERHILQEVEKGLTNQEIADALHLSKRSIEYSLTSIFNKLNVGSRTEAVLIAKSDNVL
  Kd: 78 µM
